Tests used:
[1] = molecular target: T1, ALFA-EMC7(M214C), cysteine in helix 2 (H2) of EMC7 (human, UniProt Q9NPA0 24-242, M214C); experiment: cross-linking
T1 sequence: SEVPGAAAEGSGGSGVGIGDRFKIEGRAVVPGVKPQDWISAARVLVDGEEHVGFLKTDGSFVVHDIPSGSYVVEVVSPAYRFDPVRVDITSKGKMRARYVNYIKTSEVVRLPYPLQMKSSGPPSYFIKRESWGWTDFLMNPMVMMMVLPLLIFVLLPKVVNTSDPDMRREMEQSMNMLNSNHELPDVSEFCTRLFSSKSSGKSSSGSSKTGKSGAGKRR

[2] = molecular target: T2, EMC3(T102C)-GFP, cysteine in loop 2 of EMC3 (human, UniProt Q9P0I2 1-261, T102C); experiment: cross-linking
T2 sequence: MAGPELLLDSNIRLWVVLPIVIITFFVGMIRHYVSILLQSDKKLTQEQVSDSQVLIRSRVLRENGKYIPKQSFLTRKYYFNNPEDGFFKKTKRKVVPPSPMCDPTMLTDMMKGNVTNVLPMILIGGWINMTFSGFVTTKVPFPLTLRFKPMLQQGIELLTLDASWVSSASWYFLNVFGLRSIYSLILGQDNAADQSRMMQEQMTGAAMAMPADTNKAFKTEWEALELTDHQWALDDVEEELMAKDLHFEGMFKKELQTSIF

binding result [1]: binds
binding result [2]: binds
B1: SQS(L401C): 3xFLAG-Sec61β(2-59, C39S)-SQS(378-end) with a cysteine at L401 in the TMD (other)
chain: PGPTPSGTNVGSSGRSPSKAVAARAAGSTVRQRKNASSGTRSAGRTTSAGTGGMWRFYSRSHYSPIYLSFVMLLAALSWQYCTTLSQVTEDYVQTGEH
modifications: 35S-methionine labelled

From article doi:10.1101/2022.11.29.518402 (bioRxiv, 2022)
